Experimental data as given in patent publication US20260097113A1 (Pfizer, published 2026).
Numbering of substitutions follows the chain as printed.

What was measured:
[1] = molecular target: RSV A + RSV B bivalent composition (RSV subtype A; RSV subtype B); assay: AM14 Fab titration by SEC; Low-Fast cycle; 8 M 2-8°C
[2] = molecular target: RSV A + RSV B bivalent composition (RSV subtype A; RSV subtype B); assay: AM14 Fab titration by SEC; Target cycle; 1 M 2-8°C (second value)
[3] = molecular target: RSV A + RSV B bivalent composition (RSV subtype A; RSV subtype B); assay: AM14 Fab titration by SEC; composition of Table 14; Target lyophilization cycle, T0
[4] = molecular target: RSV A + RSV B bivalent composition (RSV subtype A; RSV subtype B); assay: AM14 Fab titration by SEC; High-Slow 2 cycle; 8 M 2-8°C
[5] = molecular target: T1, RSV F protein of subtype A comprising a polypeptide of SEQ ID NO: 1 and a polypeptide of SEQ ID NO: 2 (RSV subtype A, UniProt P11209 137-513; P03420 26-109); assay: AM14 ELISA; F6 (pH 7, 0 mM NaCl, 4.5% sucrose); T0
T1 construct: Stabilized prefusion F trimer made of three F2-F1 heterodimers; Produced recombinantly in CHO cells; also called RSV A; RSVA
T1 chain 1: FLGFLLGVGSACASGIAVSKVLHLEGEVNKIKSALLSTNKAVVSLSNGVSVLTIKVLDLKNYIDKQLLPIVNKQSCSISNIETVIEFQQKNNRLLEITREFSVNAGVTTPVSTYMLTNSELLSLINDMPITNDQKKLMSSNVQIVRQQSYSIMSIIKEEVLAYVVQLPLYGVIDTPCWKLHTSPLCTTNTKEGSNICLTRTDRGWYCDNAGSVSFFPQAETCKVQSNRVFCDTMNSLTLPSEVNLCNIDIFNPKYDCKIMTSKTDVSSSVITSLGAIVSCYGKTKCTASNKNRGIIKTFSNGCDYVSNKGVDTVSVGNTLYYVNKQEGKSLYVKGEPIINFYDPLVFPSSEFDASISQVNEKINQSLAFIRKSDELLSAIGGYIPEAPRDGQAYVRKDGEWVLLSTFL
T1 chain 2: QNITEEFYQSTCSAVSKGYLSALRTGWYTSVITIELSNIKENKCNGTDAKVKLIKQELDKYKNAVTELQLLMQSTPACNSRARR

[6] = molecular target: T2, RSV F protein comprising a polypeptide of SEQ ID NO: 3 and a polypeptide of SEQ ID NO: 4 (RSV subtype B, UniProt O36634 137-513; O36634 26-109); assay: AM14 prefusion assay relative to standard; RSV B 480 µg/mL, 2% sucrose + 4% mannitol; post-lyo 2 months at 5°C
T2 construct: also called RSV B; RSVB
T2 chain 1: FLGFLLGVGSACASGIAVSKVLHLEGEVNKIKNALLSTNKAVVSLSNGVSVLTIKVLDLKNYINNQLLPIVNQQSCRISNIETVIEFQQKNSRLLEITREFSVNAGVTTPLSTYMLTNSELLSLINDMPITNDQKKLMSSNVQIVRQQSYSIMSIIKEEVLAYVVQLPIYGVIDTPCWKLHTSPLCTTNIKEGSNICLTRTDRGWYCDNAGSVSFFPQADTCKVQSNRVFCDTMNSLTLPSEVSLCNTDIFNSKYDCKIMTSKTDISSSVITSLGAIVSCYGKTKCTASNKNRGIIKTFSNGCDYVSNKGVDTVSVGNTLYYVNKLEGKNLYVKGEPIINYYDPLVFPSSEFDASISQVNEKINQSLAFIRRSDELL
T2 chain 2: T1 chain 2 with K17R, L20F, N42T, A49T, S74N, S80N

[7] = molecular target: T1, RSV F protein of subtype A comprising a …; assay: AM14 ELISA; F8 (pH 7, 50 mM NaCl, 0% sucrose); 1 wk 5°C
[8] = molecular target: T1, RSV F protein of subtype A comprising a …; assay: AM14 ELISA; F7 (pH 6, 100 mM NaCl, 0% sucrose); 1 wk 25°C
[9] = molecular target: T1, RSV F protein of subtype A comprising a …; assay: AM14 ELISA; F10 (pH 7, 50 mM NaCl, 4.5% sucrose); 2 wk 25°C
[10] = molecular target: T1, RSV F protein of subtype A comprising a …; assay: AM14 ELISA; F10 (pH 7, 50 mM NaCl, 4.5% sucrose); 1 wk 5°C
[11] = molecular target: T1, RSV F protein of subtype A comprising a …; assay: AM14 ELISA; F11 (pH 7, 50 mM NaCl, 9.0% sucrose); 2 wk 5°C
[12] = molecular target: T1, RSV F protein of subtype A comprising a …; assay: AM14 ELISA; F14 (pH 7, 50 mM NaCl, 4.5% sucrose); 1 wk 5°C
[13] = molecular target: T1, RSV F protein of subtype A comprising a …; assay: AM14 ELISA; F15 (pH 6, 0 mM NaCl, 9% sucrose); T0
[14] = molecular target: T1, RSV F protein of subtype A comprising a …; assay: AM14 ELISA; F17 (pH 7, 50 mM NaCl, 4.5% trehalose); T0

Molecule: AM14 Fab
- Prefusion Content (%) [1]: 73%
- Prefusion Content (%) [2]: 69%
- Prefusion Content (%) [3]: 80%
- Prefusion Content (%) [4]: 72%

B1: AM14 (trimeric prefusion specific antibody of the AM14 ELISA) (antibody, V domains shown)
VH: EVQLVESGGGVVQPGRSLRLSCAASGFSFSHYAMHWVRQAPGKGLEWVAVISYDGENTYYADSVKGRFSISRDNSKNTVSLQMNSLRPEDTALYYCARDRIVDDYYYYGMDVWGQGATVTVSS
VL: DIQMTQSPSSLSASVGDRVTITCQASQDIKKYLNWYHQKPGKVPELLMHDASNLETGVPSRFSGRGSGTDFTLTISSLQPEDIGTYYCQQYDNLPPLTFGGGTKVEIKR
notes: Antibody as used in the AM14 ELISA, detected with an HRP-labeled secondary antibody
- AM14 prefusion content (%), relative to standard [5]: 99%
- AM14 prefusion content (%), relative to standard [6]: 101%
- AM14 prefusion content (%), relative to standard [7]: 99%
- AM14 prefusion content (%), relative to standard [8]: 75%
- AM14 prefusion content (%), relative to standard [9]: 81%
- AM14 prefusion content (%), relative to standard [10]: 93%
- AM14 prefusion content (%), relative to standard [11]: 90%
- AM14 prefusion content (%), relative to standard [12]: 85%
- AM14 prefusion content (%), relative to standard [13]: 106%
- AM14 prefusion content (%), relative to standard [14]: 86%
